US20220402981A1

What was measured:
[1] = molecular target: DDB1ΔB-DCAF15biotin (human) (UniProt Q16531); test: TR-FRET dimerization assay; the compound E7820 is titrated (EC50 is of the compound) to DDB1ΔB-DCAF15 in the presence of BodipyFL-RBM23RRM2-WT, FIG. 5E
[2] = molecular target: DDB1ΔB-DCAF15biotin-DDA1 (human) (UniProt Q16531); test: TR-FRET with E7820; DDB1-DCAF15-DDA1 against DDB1-DCAF15
[3] = molecular target: DDB1ΔB-DCAF15biotin (human) (UniProt Q16531); test: TR-FRET, BodipyFL-RBM39RRM2 titrated to DDB1ΔB-DCAF15biotin in the presence of E7820 at 50 µM; apparent KD
[4] = molecular target: DDB1ΔB-DCAF15biotin (human) (UniProt Q16531); test: TR-FRET, BodipyFL-RBM39RRM2 titrated to DDB1ΔB-DCAF15biotin in the presence of indisulam at 50 µM; apparent KD
[5] = molecular target: DDB1ΔB-DCAF15biotin (human) (UniProt Q16531); test: TR-FRET, BodipyFL-RBM39RRM2 titrated to DDB1ΔB-DCAF15biotin in the presence of tasisulam at 50 µM; apparent KD
[6] = molecular target: DDB1ΔB-DCAF15biotin (human) (UniProt Q16531); test: TR-FRET, BodipyFL-RBM39RRM2 titrated to DDB1ΔB-DCAF15biotin in the presence of E7820 (50 µM), FIG. 3C; apparent KD
[7] = molecular target: DDB1ΔB-DCAF15biotin (human) (UniProt Q16531); test: TR-FRET dimerization assay; the compound E7820 is titrated (EC50 is of the compound), both proteins at 200 nM, FIG. 7F
[8] = molecular target: DDB1ΔB-DCAF15biotin-DDA1 (human) (UniProt Q16531); test: TR-FRET, BodipyFL-RBM39RRM2 titrated to DDB1ΔB-DCAF15biotin-DDA1 in the presence of E7820 (50 µM), FIG. 3C; apparent KD
[9] = molecular target: DDB1ΔB-DCAF15biotin (human) (UniProt Q16531); test: TR-FRET dimerization assay; the compound indisulam is titrated (EC50 is of the compound), both proteins at 200 nM, FIG. 7F
[10] = molecular target: DDB1ΔB-DCAF15biotin (human) (UniProt Q16531); test: TR-FRET dimerization assay; the compound tasisulam is titrated (EC50 is of the compound), both proteins at 200 nM, FIG. 7F
[11] = molecular target: DDB1ΔB-DCAF15biotin-DDA1 (human) (UniProt Q16531); test: TR-FRET dimerization assay; the compound E7820 is titrated (EC50 is of the compound) to DDB1ΔB-DCAF15biotin-DDA1 and BodipyFL-RBM39RRM2, FIG. 3D

Sequence of BodipyFL-RBM39RRM2 (Q14498 245-332): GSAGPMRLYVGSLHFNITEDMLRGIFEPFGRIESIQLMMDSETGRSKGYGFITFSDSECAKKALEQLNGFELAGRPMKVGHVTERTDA

EC50 [1] | fold strengthening of apparent affinity against the complex without DDA1 [2] | Kd [3] | Kd [4] | Kd [5] | Kd [6] | EC50 [7] | Kd [8] | EC50 [9] | EC50 [10] | EC50 [11] | Substance
1000 nM | – | – | – | – | – | – | – | – | – | – | BodipyFL-RBM23RRM2-WT (from UniProt Q86U06 263-341)
– | 3 fold | 2000 nM | 2100 nM | 3500 nM | 1900 nM | 740 nM | 620 nM | 3200 nM | > 10000 nM | 330 nM | BodipyFL-RBM39RRM2 (from UniProt Q14498 245-332)
